± gives the standard deviation of the averaged measurements.
How the values were obtained:
MCF7 = experiment: percentage of EdU-negative (G0-arrested) nuclei per well, 72 h; higher = more G0 arrest; details: reference: sequence is the full UniProt precursor, the tested protein was the secreted form or ectodomain
hTERT-HMEC = experiment: as above; details: reference: sequence is the full UniProt precursor, the tested protein was the secreted form or ectodomain
[1] = protein concentration 0.02778 µM
[2] = protein concentration 0.2778 µM
[3] = protein concentration 0.0225 µM
[4] = protein concentration 0.03125 µM
[5] = protein concentration 0.3125 µM
[6] = protein concentration 0.0165575 µM
[7] = protein concentration 0.165575 µM
[8] = protein concentration 0.0059525 µM
[9] = protein concentration 0.059525 µM
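Also: secreted proteins added to cultured cells, EdU pulse at the end, nuclei found by Hoechst imaging, EdU status from nuclear versus surrounding ring intensity ratio, PBS as neutral control.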

For “MSRPQLRRWRLVSSPPSGVPGLALLALLALLALRLAAGTDCPCPEPELCRPIRHHPDFEVFVFDVGQKTWKSYDWSQITTVATFGKYDSELMCYAHSKGARVVLKGDVSLKDIIDPAFRASWIAQKLNLAKTQYMDGINIDIEQEVNCLSPEYDALTALVKETTDSFHREIEGSQVTFDVAWSPKNIDRRCYNYTGIADACDFLFVMSYDEQSQIWSECIAAANAPYNQTLTGYNDYIKMSINPKKLVMGVPWYGYDYTCLNLSEDHVCTIAKVPFRGAPCSDAAGRQVPYKTIMKQINSSISGNLWDKDQRAPYYNYKDPAGHFHQVWYDNPQSISLKATYIQNYRLRGIGMWNANCLDYSGDAVAKQQTEEMWEVLKPKLLQR”, the “percentage of EdU-negative” value (MCF7; [1]) was 25.1 ± 3.2%, the “percentage of EdU-negative” value (MCF7; [2]) was 24.6 ± 1.1% and the “percentage of EdU-negative” value (hTERT-HMEC; [1]) was 5.6 ± 0.68%. The “percentage of EdU-negative” value (hTERT-HMEC; [2]) was 6.64 ± 0.1%.

With “MAPRARRRRPLFALLLLCALLARLQVALQIAPPCTSEKHYEHLGRCCNKCEPGKYMSSKCTTTSDSVCLPCGPDEYLDSWNEEDKCLLHKVCDTGKALVAVVAGNSTTPRRCACTAGYHWSQDCECCRRNTECAPGLGAQHPLQLNKDTVCKPCLAGYFSDAFSSTDKCRPWTNCTFLGKRVEHHGTEKSDAVCSSSLPARKPPNEPHVYLPGLIILLLFASVALVAAIIFGVCYRKKGKALTANLWHWINEACGRLSGDKESSGDSCVSTHTANFGQQGACEGVLLLTLEEKTFPEDMCYPDQGGVCQGTCVGGGPYAQGEDARMLSLVSKTEIEEDSFRQMPTEDEYMDRPSQPTDQLLFLTEPGSKSTPPFSEPLEVGENDSLSQCFTGTQSTVGSESCNCTEPLCRTDWTPMSSENYLQKEVDSGHCPHWAASPSPNWADVCTGCRNPPGEDCEPLVGSPKRGPLPQCAYGMGLPPEEEASRTEARDQPEDGADGRLPSSARAGAGSGSSPGGQSPASGNVTGNSNSTFISSGQVMNFKGDIIVVYVSQTSQEGAAAAAEPMGRPVQEETLARRDSFAGNGPRFPDPCGGPEGLREPEKASRPVQEQGGAKA [Q9Y6Q6]” the “percentage of EdU-negative” value (MCF7; [3]) was 24 ± 1.9%, the “percentage of EdU-negative” value (MCF7; protein concentration 0.225 µM) was 25.6 ± 1.8% and the “percentage of EdU-negative” value (hTERT-HMEC; [3]) was 5.19 ± 0.68%. The “percentage of EdU-negative” value (hTERT-HMEC; protein concentration 0.225 µM) was 5.83 ± 0.025%.

With “MGRGWGFLFGLLGAVWLLSSGHGEEQPPETAAQRCFCQVSGYLDDCTCDVETIDRFNNYRLFPRLQKLLESDYFRYYKVNLKRPCPFWNDISQCGRRDCAVKPCQSDEVPDGIKSASYKYSEEANNLIEECEQAERLGAVDESLSEETQKAVLQWTKHDDSSDNFCEADDIQSPEAEYVDLLLNPERYTGYKGPDAWKIWNVIYEENCFKPQTIKRPLNPLASGQGTSEENTFYSWLEGLCVEKRAFYRLISGLHASINVHLSARYLLQETWLEKKWGHNITEFQQRFDGILTEGEGPRRLKNLYFLYLIELRALSKVLPFFERPDFQLFTGNKIQDEENKMLLLEILHEIKSFPLHFDENSFFAGDKKEAHKLKEDFRLHFRNISRIMDCVGCFKCRLWGKLQTQGLGTALKILFSEKLIANMPESGPSYEFHLTRQEIVSLFNAFGRISTSVKELENFRNLLQNIH [Q96HE7]” the “percentage of EdU-negative” value (MCF7; [4]) was 26.32 ± 0.034%, the “percentage of EdU-negative” value (MCF7; [5]) was 25.7 ± 0.52% and the “percentage of EdU-negative” value (hTERT-HMEC; [4]) was 6.24 ± 0.39%. For the same sequence, the “percentage of EdU-negative” value (hTERT-HMEC; [5]) was 6.47 ± 0.033%.

“MVPEEEPQDREKGLWWFQLKVWSMAVVSILLLSVCFTVSSVVPHNFMYSKTVKRLSKLREYQQYHPSLTCVMEGKDIEDWSCCPTPWTSFQSSCYFISTGMQSWTKSQKNCSVMGADLVVINTREEQDFIIQNLKRNSSYFLGLSDPGGRRHWQWVDQTPYNENVTFWHSGEPNNLDERCAIINFRSSEEWGWNDIHCHVPQKSICKMKKIYI [Q8WTT0]” was tested, and the “percentage of EdU-negative” value (MCF7; [3]) was 27.712 ± 0.0085%, the “percentage of EdU-negative” value (MCF7; protein concentration 0.225 µM) was 26.5 ± 0.9% and the “percentage of EdU-negative” value (hTERT-HMEC; [3]) was 4.78 ± 0.84%. The “percentage of EdU-negative” value (hTERT-HMEC; protein concentration 0.225 µM) was 4.64 ± 1%.

With “MGLLSAPPCTQRITWKGLLLTASLLNFWNPPTTAQVTIEAQPTKVSEGKDVLLLVHNLPQNLTGYIWYKGQIRDLYHYITSYVVDGQIIIYGPAYSGRETIYSNASLLIQNVTQEDAGSYTLHIIMGGDENRGVTGHFTFTLYLETPKPSISSSKLNPREAMEAVSLTCDPETPDASYLWWMNGQSLPMSHRLQLSETNRTLFLLGVTKYTAGPYECEIRNPVSASRSDPFTLNLLPKLPKPYITINNLKPRENKDVLNFTCEPKSENYTYIWWLNGQSLPVSPRVKRPIENRILILPSVTRNETGPYQCEIRDQYGGIRSYPVTLNVLYGPDLPRIYPSFTYYRSGEVLYLSCSADSNPPAQYSWTINGKFQLSGQKLFIPQITTKHSGLYACSVRNSATGKESSKSMTVKVSGKRIPVSLAIGI [Q9UQ74]” the “percentage of EdU-negative” value (MCF7; [6]) was 26.7 ± 1%, the “percentage of EdU-negative” value (MCF7; [7]) was 31.5 ± 1.5% and the “percentage of EdU-negative” value (hTERT-HMEC; [6]) was 4.16 ± 0.38%. For the same sequence, the “percentage of EdU-negative” value (hTERT-HMEC; [7]) was 6.44 ± 0.53%.

In the case of “MDRAARCSGASSLPLLLALALGLVILHCVVADGNSTRSPETNGLLCGDPEENCAATTTQSKRKGHFSRCPKQYKHYCIKGRCRFVVAEQTPSCVCDEGYIGARCERVDLFYLRGDRGQILVICLIAVMVVFIILVIGVCTCCHPLRKRRKRKKKEEEMETLGKDITPINEDIEETNIA”, the “percentage of EdU-negative” value (MCF7; [4]) is reported as 24.5 ± 1.2%, the “percentage of EdU-negative” value (MCF7; [5]) is reported as 23.3 ± 0.42% and the “percentage of EdU-negative” value (hTERT-HMEC; [4]) is reported as 5.5 ± 0.31%. For the same sequence, the “percentage of EdU-negative” value (hTERT-HMEC; [5]) was 5.88 ± 0.75%.

In the case of “MGVPFFSSLRCMVDLGPCWAGGLTAEMKLLLALAGLLAILATPQPSEGAAPAVLGEVDTSLVLSSMEEAKQLVDKAYKERRESIKQRLRSGSASPMELLSYFKQPVAATRTAVRAADYLHVALDLLERKLRSLWRRPFNVTDVLTPAQLNVLSKSSGCAYQDVGVTCPEQDKYRTITGMCNNRRSPTLGASNRAFVRWLPAEYEDGFSLPYGWTPGVKRNGFPVALARAVSNEIVRFPTDQLTPDQERSLMFMQWGQLLDHDLDFTPEPAARASFVTGVNCETSCVQQPPCFPLKIPPNDPRIKNQADCIPFFRSCPACPGSNITIRNQINALTSFVDASMVYGSEEPLARNLRNMSNQLGLLAVNQRFQDNGRALLPFDNLHDDPCLLTNRSARIPCFLAGDTRSSEMPELTSMHTLLLREHNRLATELKSLNPRWDGERLYQEARKIVGAMVQIITYRDYLPLVLGPTAMRKYLPTYRSYNDSVDPRIANVFTNAFRYGHTLIQPFMFRLDNRYQPMEPNPRVPLSRVFFASWRVVLEGGIDPILRGLMATPAKLNRQNQIAVDEIRERLFEQVMRIGLDLPALNMQRSRDHGLPGYNAWRRFCGLPQPETVGQLGTVLRNLKLARKLMEQYGTPNNIDIWMGGVSEPLKRKGRVGPLLACIIGTQFRKLRDGDRFWWENEGVFSMQQRQALAQISLPRIICDNTGITTVSKNNIFMSNSYPRDFVNCSTLPALNLASWREAS”, the “percentage of EdU-negative” value (MCF7; [8]) is reported as 24.8 ± 1.3%, the “percentage of EdU-negative” value (MCF7; [9]) is reported as 26.8 ± 0.65% and the “percentage of EdU-negative” value (hTERT-HMEC; [8]) is reported as 5.02 ± 0.23%. The “percentage of EdU-negative” value (hTERT-HMEC; [9]) was 4.74 ± 0.28%.
